# From IntAct's records for PubMed 29039417
# B1: BBSome complex member BBS1 (Homo sapiens), Q8NFJ9 (parent)
# chain: MAAASSSDSDACGAESNEANSKWLDAHYDPMANIHTFSACLALADLHGDGEYKLVVGDLGPGGQQPRLKVLKGPLVMTESPLPALPAAAATFLMEQHEPRTPALALASGPCVYVYKNLRPYFKFSLPQLPPNPLEQDLWNQAKEDRIDPLTLKEMLESIRETAEEPLSIQSLRFLQLELSEMEAFVNQHKSNSIKRQTVITTMTTLKKNLADEDAVSCLVLGTENKELLVLDPEAFTILAKMSLPSVPVFLEVSGQFDVEFRLAAACRNGNIYILRRDSKHPKYCIELSAQPVGLIRVHKVLVVGSTQDSLHGFTHKGKKLWTVQMPAAILTMNLLEQHSRGLQAVMAGLANGEVRIYRDKALLNVIHTPDAVTSLCFGRYGREDNTLIMTTRGGGLIIKILKRTAVFVEGGSEVGPPPAQAMKLNVPRKTRLYVDQTLREREAGTAMHRAFQTDLYLLRLRAARAYLQALESSLSPLSTTAREPLKLHAVVQGLGPTFKLTLHLQNTSTTRPVLGLLVCFLYNEALYSLPRAFFKVPLLVPGLNYPLETFVESLSNKGISDIIKVLVLREGQSAPLLSAHVNMPGSEGLAAA
# partner: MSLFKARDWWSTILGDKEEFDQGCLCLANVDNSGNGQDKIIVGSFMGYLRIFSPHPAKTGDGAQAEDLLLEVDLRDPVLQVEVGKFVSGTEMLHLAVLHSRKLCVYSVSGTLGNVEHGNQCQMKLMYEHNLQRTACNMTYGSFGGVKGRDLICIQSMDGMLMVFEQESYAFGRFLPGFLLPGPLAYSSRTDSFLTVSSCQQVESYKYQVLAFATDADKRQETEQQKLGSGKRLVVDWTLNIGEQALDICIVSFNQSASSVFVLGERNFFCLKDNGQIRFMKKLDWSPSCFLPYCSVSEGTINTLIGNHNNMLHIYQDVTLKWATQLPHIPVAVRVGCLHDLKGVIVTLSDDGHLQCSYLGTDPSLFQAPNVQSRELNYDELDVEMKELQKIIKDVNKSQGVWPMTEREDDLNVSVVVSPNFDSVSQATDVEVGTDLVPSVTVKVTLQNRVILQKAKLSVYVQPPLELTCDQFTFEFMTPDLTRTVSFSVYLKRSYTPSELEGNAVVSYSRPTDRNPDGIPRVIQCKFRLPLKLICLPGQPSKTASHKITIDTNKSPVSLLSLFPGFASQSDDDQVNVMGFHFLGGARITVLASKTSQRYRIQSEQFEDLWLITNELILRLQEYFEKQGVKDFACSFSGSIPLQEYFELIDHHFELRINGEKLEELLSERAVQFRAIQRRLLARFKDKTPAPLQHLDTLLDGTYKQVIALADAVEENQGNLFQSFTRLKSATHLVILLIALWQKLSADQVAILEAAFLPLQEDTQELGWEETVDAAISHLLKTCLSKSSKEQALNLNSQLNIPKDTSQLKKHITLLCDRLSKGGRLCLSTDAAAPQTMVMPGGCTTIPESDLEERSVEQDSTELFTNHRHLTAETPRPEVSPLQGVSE
# Variants of: B1
# Conditions: with pthb1_human BBS9, Q3SYG4
row,effect of a mutation on the interaction,Variant
1,disrupting interaction strength,MAAASSSDSDACGAESNEANSKWLDAHYDPMANIHTFSACLALADLHGDGEYKLVVGDLGPGGQQPRLKVLKGPLVMTESPLPALPAAAATFLMEQHEPRTPALALASGPCVYVYKNLRPYFKFSLPQLPPNPLEQDLWNQAKEDRIDPLTLKEMLESIRETAEEPLSIQSLRFLQLELSEMEAFVNQHKSNSIKRQTVITTMTTLKKNLADEDAVSCLVLGTENKELLVLDPEAFTILAKMSLPSVPVFLEVSGQFDVEFRLAAACRNGNIYILRRDSKHPKYCIELSAQPVGLIRVHKVLVVGSTQDSLHGFTHKGKKLWTVQMPAAILTMNLLEQHSRGLQAVMAGLANGEVRIYRDKALLNVIHTPDAVTSLCFGRYGREDNTLIMTTRGGGLIIKILKRTAVFVEGGSEVGPPPAQAMKLNVPRKTRLYVDQTLREREAGTAMHRAFQTDLYLLRLRAARAYLQALESSLSPLSTTAREPLKLHAVVQGLGPTFKLTLHLQNTSTTRPVLGLLVCFLANEALYSLPRAFFKVPLLVPGLNYPLETFVESLSNKGISDIIKVLVLREGQSAPLLSAHVNMPGSEGLAAA [Y523A]
2,disrupting interaction strength,MAAASSSDSDACGAESNEANSKWLDAHYDPMANIHTFSACLALADLHGDGEYKLVVGDLGPGGQQPRLKVLKGPLVMTESPLPALPAAAATFLMEQHEPRTPALALASGPCVYVYKNLRPYFKFSLPQLPPNPLEQDLWNQAKEDRIDPLTLKEMLESIRETAEEPLSIQSLRFLQLELSEMEAFVNQHKSNSIKRQTVITTMTTLKKNLADEDAVSCLVLGTENKELLVLDPEAFTILAKMSLPSVPVFLEVSGQFDVEFRLAAACRNGNIYILRRDSKHPKYCIELSAQPVGLIRVHKVLVVGSTQDSLHGFTHKGKKLWTVQMPAAILTMNLLEQHSRGLQAVMAGLANGEVRIYRDKALLNVIHTPDAVTSLCFGRYGREDNTLIMTTRGGGLIIKILKRTAVFVEGGSEVGPPPAQAMKLNVPRKTRLYVDQTLREREAGTAMHRAFQTDLYLLRLRAARAYLQALESSLSPLSTTAREPLKLHAVVQGLGPTFKLTLHLQNTSTTRPVLGLLVCFLENEALYSLPRAFFKVPLLVPGLNYPLETFVESLSNKGISDIIKVLVLREGQSAPLLSAHVNMPGSEGLAAA [Y523E]
3,with no effect,MAAASSSDSDACGAESNEANSKWLDAHYDPMANIHTFSACLALADLHGDGEYKLVVGDLGPGGQQPRLKVLKGPLVMTESPLPALPAAAATFLMEQHEPRTPALALASGPCVYVYKNLRPYFKFSLPQLPPNPLEQDLWNQAKEDRIDPLTLKEMLESIRETAEEPLSIQSLRFLQLELSEMEAFVNQHKSNSIKRQTVITTMTTLKKNLADEDAVSCLVLGTENKELLVLDPEAFTILAKMSLPSVPVFLEVSGQFDVEFRLAAACRNGNIYILRRDSKHPKYCIELSAQPVGLIRVHKVLVVGSTQDSLHGFTHKGKKLWTVQMPAAILTMNLLEQHSRGLQAVMAGLANGEVRIYRDKALLNVIHTPDAVTSLCFGRYGREDNTLIMTTRGGGLIIKILKRTAVFVEGGSEVGPPPAQAMKLNVPRKTRLYVDQTLREREAGTAMHRAFQTDLYLLRLRAARAYLQALESSLSPLSTTAREPLKLHAVVQGLGPTFKLTLHLQNTSTTRPVLGLLVCFAYNEALYSLPRAFFKVPLLVPGLNYPLETFVESLSNKGISDIIKVLVLREGQSAPLLSAHVNMPGSEGLAAA [L522A]
4,with no effect,MAAASSSDSDACGAESNEANSKWLDAHYDPMANIHTFSACLALADLHGDGEYKLVVGDLGPGGQQPRLKVLKGPLVMTESPLPALPAAAATFLMEQHEPRTPALALASGPCVYVYKNLRPYFKFSLPQLPPNPLEQDLWNQAKEDRIDPLTLKEMLESIRETAEEPLSIQSLRFLQLELSEMEAFVNQHKSNSIKRQTVITTMTTLKKNLADEDAVSCLVLGTENKELLVLDPEAFTILAKMSLPSVPVFLEVSGQFDVEFRLAAACRNGNIYILRRDSKHPKYCIELSAQPVGLIRVHKVLVVGSTQDSLHGFTHKGKKLWTVQMPAAILTMNLLEQHSRGLQAVMAGLANGEVRIYRDKALLNVIHTPDAVTSLCFGRYGREDNTLIMTTRGGGLIIKILKRTAVFVEGGSEVGPPPAQAMKLNVPRKTRLYVDQTLREREAGTAMHRAFQTDLYLLRLRAARAYLQALESSLSPLSTTAREPLKLHAVVQGLGPTFKLTLHLQNTSTTRPVLGLLVCFEYNEALYSLPRAFFKVPLLVPGLNYPLETFVESLSNKGISDIIKVLVLREGQSAPLLSAHVNMPGSEGLAAA [L522E]
5,with no effect,MAAASSSDSDACGAESNEANSKWLDAHYDPMANIHTFSACLALADLHGDGEYKLVVGDLGPGGQQPRLKVLKGPLVMTESPLPALPAAAATFLMEQHEPRTPALALASGPCVYVYKNLRPYFKFSLPQLPPNPLEQDLWNQAKEDRIDPLTLKEMLESIRETAEEPLSIQSLRFLQLELSEMEAFVNQHKSNSIKRQTVITTMTTLKKNLADEDAVSCLVLGTENKELLVLDPEAFTILAKMSLPSVPVFLEVSGQFDVEFRLAAACRNGNIYILRRDSKHPKYCIELSAQPVGLIRVHKVLVVGSTQDSLHGFTHKGKKLWTVQMPAAILTMNLLEQHSRGLQAVMAGLANGEVRIYRDKALLNVIHTPDAVTSLCFGRYGREDNTLIMTTRGGGLIIKILKRTAVFVEGGSEVGPPPAQAMKLNVPRKTRLYVDQTLREREAGTAMHRAFQTDLYLLRLRAARAYLQALESSLSPLSTTAREPLKLHAVVQGLGPTFKLTLHLQNTSTTRPVLGLLVCFKYNEALYSLPRAFFKVPLLVPGLNYPLETFVESLSNKGISDIIKVLVLREGQSAPLLSAHVNMPGSEGLAAA [L522K]
